{
  "source": "patent US20190194714A1",
  "about": "“REAGENT FOR GLUCOSE SENSOR, GLUCOSE SENSOR, METHOD FOR MANUFACTURING GLUCOSE SENSOR, AND GLUCOSE MEASURING DEVICE” (NATIONAL INSTITUTE OF ADVANCED INDUSTRIAL SCIENCE AND …, priority 2016, published 2019)",
  "key": {"[1]": {"system": "Aspergillus terreus var. aureus FAD-GDH (flavin adenine dinucleotide glucose dehydrogenase), enzyme No. 1, host Pichia pastoris", "assay": "Michaelis constant of FAD-GDH enzyme No. 1", "assay_type": "biochemical", "details": "110 kDa"}, "[2]": {"substrate": "OC[C@H]1OC(O)[C@H](O)[C@@H](O)[C@@H]1O", "assay": "Michaelis constant of FAD-GDH enzyme No. 2", "assay_type": "biochemical, Thermoascus crustaceus", "details": "other: enzyme No. 2, host Escherichia coli, 60 kDa"}, "[3]": {"substrate": "OC[C@H]1OC(O)[C@H](O)[C@@H](O)[C@@H]1O", "assay": "Michaelis constant of FAD-GDH enzyme No. 4", "assay_type": "biochemical, Thermoascus crustaceus", "details": "other: enzyme No. 4, host Saccharomyces cerevisiae, 90 kDa"}, "[4]": {"substrate": "OC[C@H]1OC(O)[C@H](O)[C@@H](O)[C@@H]1O", "assay": "Michaelis constant of FAD-GDH enzyme No. 3", "assay_type": "biochemical, Thermoascus crustaceus", "details": "other: enzyme No. 3, host Pichia pastoris, 90 kDa"}},
  "data": [
    {"molecule": "OC[C@H]1OC(O)[C@H](O)[C@@H](O)[C@@H]1O", "note": "(stereo partly shown) [glucose]", "values": [
      {"measurement": "Km", "setting": "[1]", "result": 82, "unit": "mM"}
    ]},
    {"molecule": "Thermoascus crustaceus FAD-GDH (flavin adenine dinucleotide glucose dehydrogenase), enzyme No. 2, host Escherichia coli (Thermoascus crustaceus) (protein) TSYDYIIVGGGTSGLVVANRLSEDSSVSVLVVEAGDSVYNNPNVTGTGAYGAAFGTSIDWAYQTIKQPYAGDLTQTIRAGKALGGTSTINGMAYTRAEDVQIDAWEAIGNQGWNWSTLFPYYLKSERFQIPINAQSAAGANWNPAYHGMNGPLTTGWTYEMMNGSMAEVLNATYQNLGISYLPDVNGGKMHGYTLFPRTVNRALDVREDAARAYYYPFESSRPNLSVMLNTYGNRIVWANATNTNSVTATGVEVTLSDGTVQTIQANKEVILSAGSLISPAILERSGVGNPTVLSRFGIPLVVNLTTVGENLQDQMNTEFIYLSNATFSGQSTFLGHPTAADLFGSNVTNVAKSVQSSLPHYAATVSEASNGTMSAAVLQKLFQLQYNIIFNNPTPIAEILVAPSGSKFITEYWALLPFARGNVHIGSANPLDRPVINPNYMMFEWDMQEQIASGKFVRKLYGTAPFTNWATGEATPGYSTLPANATDGQWAQWISSVSRSNFHPVGTAAMMPRDMGGVVDSNLVVYGTNNVRVIDASVLPLQVCGHLVSTLYAVAERASDLIKAGQV", "values": [
      {"measurement": "Km", "setting": "[2]", "result": 4.6, "unit": "mM"}
    ]},
    {"molecule": "Thermoascus crustaceus FAD-GDH (flavin adenine dinucleotide glucose dehydrogenase), enzyme No. 4, host Saccharomyces cerevisiae (Thermoascus crustaceus) (protein) TSYDYIIVGGGTSGLVVANRLSEDSSVSVLVVEAGDSVYNNPNVTGTGAYGAAFGTSIDWAYQTIKQPYAGDLTQTIRAGKALGGTSTINGMAYTRAEDVQIDAWEAIGNQGWNWSTLFPYYLKSERFQIPINAQSAAGANWNPAYHGMNGPLTTGWTYEMMNGSMAEVLNATYQNLGISYLPDVNGGKMHGYTLFPRTVNRALDVREDAARAYYYPFESSRPNLSVMLNTYGNRIVWANATNTNSVTATGVEVTLSDGTVQTIQANKEVILSAGSLISPAILERSGVGNPTVLSRFGIPLVVNLTTVGENLQDQMNTEFIYLSNATFSGQSTFLGHPTAADLFGSNVTNVAKSVQSSLPHYAATVSEASNGTMSAAVLQKLFQLQYNIIFNNPTPIAEILVAPSGSKFITEYWALLPFARGNVHIGSANPLDRPVINPNYMMFEWDMQEQIASGKFVRKLYGTAPFTNWATGEATPGYSTLPANATDGQWAQWISSVSRSNFHPVGTAAMMPRDMGGVVDSNLVVYGTNNVRVIDASVLPLQVCGHLVSTLYAVAERASDLIKAGQV", "values": [
      {"measurement": "Km", "setting": "[3]", "result": 3.2, "unit": "mM"}
    ]},
    {"molecule": "Thermoascus crustaceus FAD-GDH (flavin adenine dinucleotide glucose dehydrogenase), enzyme No. 3, host Pichia pastoris (Thermoascus crustaceus) (protein) TSYDYIIVGGGTSGLVVANRLSEDSSVSVLVVEAGDSVYNNPNVTGTGAYGAAFGTSIDWAYQTIKQPYAGDLTQTIRAGKALGGTSTINGMAYTRAEDVQIDAWEAIGNQGWNWSTLFPYYLKSERFQIPINAQSAAGANWNPAYHGMNGPLTTGWTYEMMNGSMAEVLNATYQNLGISYLPDVNGGKMHGYTLFPRTVNRALDVREDAARAYYYPFESSRPNLSVMLNTYGNRIVWANATNTNSVTATGVEVTLSDGTVQTIQANKEVILSAGSLISPAILERSGVGNPTVLSRFGIPLVVNLTTVGENLQDQMNTEFIYLSNATFSGQSTFLGHPTAADLFGSNVTNVAKSVQSSLPHYAATVSEASNGTMSAAVLQKLFQLQYNIIFNNPTPIAEILVAPSGSKFITEYWALLPFARGNVHIGSANPLDRPVINPNYMMFEWDMQEQIASGKFVRKLYGTAPFTNWATGEATPGYSTLPANATDGQWAQWISSVSRSNFHPVGTAAMMPRDMGGVVDSNLVVYGTNNVRVIDASVLPLQVCGHLVSTLYAVAERASDLIKAGQV", "values": [
      {"measurement": "Km", "setting": "[4]", "result": 2.8, "unit": "mM"}
    ]}
  ]
}
